In paper PMC11172241, “Insight into the Mechanism of Lysogeny Control of phiCDKH01 Bacteriophage Infecting Clinical Isolate of Clostridioides difficile”:

T1: phiCDKH01 XRE family repressor (XRE-His) (Clostridioides difficile phage phiCDKH01 (host strain CD34/Sr)), UPI000235AC6A
T1 sequence: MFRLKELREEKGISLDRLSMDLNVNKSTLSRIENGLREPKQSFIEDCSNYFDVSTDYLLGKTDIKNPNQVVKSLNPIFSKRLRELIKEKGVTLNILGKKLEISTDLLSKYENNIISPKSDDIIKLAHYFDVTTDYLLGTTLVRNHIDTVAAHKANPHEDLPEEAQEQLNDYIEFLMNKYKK

T2: phiCDKH01 XRE family repressor (XRE-His) (Clostridioides difficile phage …, UniProt UPI000235AC6A 1-181)
T2 sequence: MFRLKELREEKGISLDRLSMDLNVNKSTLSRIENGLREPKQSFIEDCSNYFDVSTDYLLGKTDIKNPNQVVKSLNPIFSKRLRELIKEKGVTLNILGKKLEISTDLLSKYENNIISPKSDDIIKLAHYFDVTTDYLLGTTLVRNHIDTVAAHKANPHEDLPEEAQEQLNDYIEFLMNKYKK

B1: BIND (minimal XRE-binding fragment) (dsDNA)
DNA 1: TTACAATTAAAATTGCCAAAAAAGCAACAA
DNA 2: TTGTTGCTTTTTTGGCAATTTTAATTGTAA

What was measured:
[1] = test system: T1, phiCDKH01 XRE family repressor (XRE-His) (Clostridioides difficile phage phiCDKH01 (host strain CD34/Sr)), UPI000235AC6A; test: EMSA; conditions: 50 mM Tris-HCl pH 7.5, 50 mM NaCl, 200 mM KCl, 50 mM MgCl2, 5 mM EDTA, 5 mM DTT, 0.25 mg/mL BSA, 15 min, room temperature, 0.1 pmol DNA, 0-200 ng protein
[2] = target: T2, phiCDKH01 XRE family repressor (XRE-His); test: EMSA; 50 mM Tris-HCl pH 7.5, 50 mM NaCl, 200 mM KCl, 50 mM MgCl2, 5 mM EDTA, 5 mM DTT, 0.25 mg/mL BSA, 15 min, room temperature; 0.1 pmol DNA, 0-200 ng protein; 5% TBE gel; conditions: protein: recombinant; tag encoded at 3' end by primer S4); chain copies: 2; blunt

Molecule | binding [1] | binding result [2]
CATTATAGCAACTTTTATTTACATTATAGCAACTTTTTTTGTTATTACAATTAAAATTGCCAAAAAAGCAACAAAAATATTGACTTTTAACATTTTTGTTGCTATTATATAA (double strand) [S2] | binds | 
GCAACTTTTTTTGTTATTACAATTAAAATTGCCAAAAAAGCAACAAAAATATTGACTTTTAACATTTTTGTTGCTATTATATAAACAAGAACTTGCTTATATAGCAAAAAGTTAGAGGGTGA (double strand) [S3 (Methods text says S4)] | binds | 
GTTGCTATAATGTAAATAAAAGTTGCTATAATGAAAACTACAATAAAGGATGATTTTATATGTTTAGATTAAAAGAACTGAGAGAAG (double strand) [S1] | binds | 
B1 |  | binds
